How the values were obtained:
[1] = target: preF-stabilized variant of RSV F (PR-DM), tags removed, deglycosylated (respiratory syncytial virus (strain not stated)) (UniProt P03420); assay: crystal structure
[2] = target: preF (DS-Cav1) with a C-terminal 8x His-tag and AviTag (respiratory syncytial virus (strain not stated)) (UniProt P03420); assay: SPR

Question: With AM22 Fab as the substance, how does the stoichiometry N (Fab per preF trimer) [1] read?
Answer: 3

Question: ADI-19425 Fab, light chain Y31A variant was tested. Which fold reduction in affinity against ADI-19425 [2] did it give?
Answer: > 200 fold

Question: With ADI-19425 Fab, light chain Y91A variant as the substance, how does the fold reduction in affinity against ADI-19425 [2] read?
Answer: > 80 fold

Reference: publication PMC6005179
